In article PMC4551920:
Read-outs that look alike come from different tables or passages of the source.

How the values were obtained:
CUGBP1-Flag [1] = molecular target: T1, CUGBP1-Flag (UniProt Q92879 1-486); assay: EMSA
CUGBP1-Flag [2] = molecular target: T1, CUGBP1-Flag; assay: EMSA; remark: listed apart in the source

T1 sequence (Q92879 whole entry): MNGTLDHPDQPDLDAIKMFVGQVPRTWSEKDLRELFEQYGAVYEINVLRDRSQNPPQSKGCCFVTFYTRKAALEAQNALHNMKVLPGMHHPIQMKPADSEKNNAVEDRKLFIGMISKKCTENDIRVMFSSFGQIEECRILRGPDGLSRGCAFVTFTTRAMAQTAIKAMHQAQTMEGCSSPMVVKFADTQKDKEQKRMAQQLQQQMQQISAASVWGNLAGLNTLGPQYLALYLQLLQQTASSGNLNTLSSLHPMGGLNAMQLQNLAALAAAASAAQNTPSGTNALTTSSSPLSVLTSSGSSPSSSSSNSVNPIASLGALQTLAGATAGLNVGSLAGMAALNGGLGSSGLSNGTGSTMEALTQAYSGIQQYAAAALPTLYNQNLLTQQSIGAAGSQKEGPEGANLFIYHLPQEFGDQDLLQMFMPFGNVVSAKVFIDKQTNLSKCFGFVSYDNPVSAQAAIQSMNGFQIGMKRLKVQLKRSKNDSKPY

Binder	binding result (CUGBP1-Flag [1])	binding result (CUGBP1-Flag [2])
UGGAGUGUGACAAUGGCCCCCC (ssRNA) [miR-122 17-22C]	no binding	
UGGAGUGUGACAAUGGUGUUUGAAAAA (ssRNA) [miR-122 27-nt (3'-a5)]	binds	
UGGAGUGUGACAAUGGUGUUUGA (ssRNA) [miR-122 23-nt (3'-a)]	binds	
UAGCAGCACGUAAAUAUUGGCG (ssRNA) [miR-16]		no binding
